Results published in US20180327512A1.

Assays:
[1] = target: human polyclonal IgG (Gammanorm) (human); experiment: SPR (Biacore), ligand on CM5 chip, 1 mg/ml human polyclonal IgG; remaining IgG binding signal after 96-100 10-min cycles in 0.5 M NaOH
[2] = target: human polyclonal IgG (Gammanorm) (human); experiment: SPR (Biacore), remaining IgG binding capacity after 96-100 cycles in 0.5 M NaOH, ratio to Zvar1 reference
[3] = target: human polyclonal IgG (Gammanorm) (human); experiment: column dynamic binding capacity at 10% breakthrough, ligand on agarose beads (ligand content 9.7 mg/ml), Gammanorm 2 mg/ml, 6 min residence time
[4] = target: human polyclonal IgG (Gammanorm) (human); experiment: column Qb10 retention after six 4 h cycles in 0.5 M NaOH, ratio to Zvar4 reference
[5] = target: human polyclonal IgG (Gammanorm) (human); experiment: column Qb10 after six 4 h cycles in 0.5 M NaOH relative to initial, ligand on agarose beads (ligand content 9.7 mg/ml)
[6] = target: human polyclonal IgG (Gammanorm) (human); experiment: column Qb10 after six 4 h cycles in 0.5 M NaOH, ligand on agarose beads (ligand content 9.7 mg/ml)
[7] = target: human polyclonal IgG (Gammanorm) (human); experiment: column Qb10 after six 4 h cycles in 0.5 M NaOH relative to initial, ligand on agarose beads (ligand content 10.8 mg/ml)
[8] = target: human polyclonal IgG (Gammanorm) (human); experiment: column dynamic binding capacity at 10% breakthrough, ligand on agarose beads (ligand content 10.8 mg/ml), Gammanorm 2 mg/ml, 6 min residence time
[9] = target: human polyclonal IgG (Gammanorm) (human); experiment: column Qb10 after six 4 h cycles in 0.5 M NaOH, ligand on agarose beads (ligand content 10.8 mg/ml)

Substance	Capacity after 96-100 cycles [1]	Capacity relative to reference [2]	Initial IgG capacity Qb10 [3]	Capacity retention relative to ref. after 4 h cycles [4]	Remaining IgG capacity after six 4 h cycles (%) [5]	Remaining IgG capacity after six 4 h cycles [6]	Remaining IgG capacity after six 4 h cycles (%) [7]	Initial IgG capacity Qb10 [8]	Remaining IgG capacity after six 4 h cycles [9]
Zvar(H18K, S33K, D37E, A42R, N43A, L44I, K50R, L51Y)1 (designed binder)	48%	1.04	–	–	–	–	–	–	–
Zvar(N11K, H18K, S33K, D37E, A42R, N43A, L44I, K50R, L51Y)4 (designed binder)	–	–	56.3 mg/mL	1.42	92%	52 mg/mL	–	–	–
Zvar(Q9A, N11K, H18K, D37E, A42R)4 (designed binder)	–	–	–	1.21	–	–	92%	56.9 mg/mL	52.5 mg/mL
